Earlier results as cited in article PMC8654464.

Target: SARS-CoV-2 spike protein RBD (Severe acute respiratory syndrome coronavirus 2) (UniProt P0DTC2)

In the case of regdanvimab, the Kd is listed as 0.065 nM.
